Assays:
[1] = target: plectin-1 on the surface of cancer cells (Homo sapiens, UniProt Q15149 1-4684); assay: cell-based or functional assay
[2] = target: T1, recombinant human Sec8-His protein (human); assay: in vitro binding assay on recombinant human Sec8-His protein (FIG. 3A)
T1 construct: also called recombinant human C-terminal portion of Plectin-1 protein; pET-10NC-Plec C term
T1 chain: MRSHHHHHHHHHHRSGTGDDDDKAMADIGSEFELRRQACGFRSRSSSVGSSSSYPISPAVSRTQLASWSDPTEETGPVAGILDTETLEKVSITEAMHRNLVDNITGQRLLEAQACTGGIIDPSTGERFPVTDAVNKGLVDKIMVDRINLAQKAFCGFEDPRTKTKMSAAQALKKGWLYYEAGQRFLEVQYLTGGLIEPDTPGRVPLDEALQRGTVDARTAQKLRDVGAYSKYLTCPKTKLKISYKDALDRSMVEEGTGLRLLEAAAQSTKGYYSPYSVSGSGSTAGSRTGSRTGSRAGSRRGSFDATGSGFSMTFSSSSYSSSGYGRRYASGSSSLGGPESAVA

Chain of plectin-1 on the surface of cancer cells (Q15149 whole entry): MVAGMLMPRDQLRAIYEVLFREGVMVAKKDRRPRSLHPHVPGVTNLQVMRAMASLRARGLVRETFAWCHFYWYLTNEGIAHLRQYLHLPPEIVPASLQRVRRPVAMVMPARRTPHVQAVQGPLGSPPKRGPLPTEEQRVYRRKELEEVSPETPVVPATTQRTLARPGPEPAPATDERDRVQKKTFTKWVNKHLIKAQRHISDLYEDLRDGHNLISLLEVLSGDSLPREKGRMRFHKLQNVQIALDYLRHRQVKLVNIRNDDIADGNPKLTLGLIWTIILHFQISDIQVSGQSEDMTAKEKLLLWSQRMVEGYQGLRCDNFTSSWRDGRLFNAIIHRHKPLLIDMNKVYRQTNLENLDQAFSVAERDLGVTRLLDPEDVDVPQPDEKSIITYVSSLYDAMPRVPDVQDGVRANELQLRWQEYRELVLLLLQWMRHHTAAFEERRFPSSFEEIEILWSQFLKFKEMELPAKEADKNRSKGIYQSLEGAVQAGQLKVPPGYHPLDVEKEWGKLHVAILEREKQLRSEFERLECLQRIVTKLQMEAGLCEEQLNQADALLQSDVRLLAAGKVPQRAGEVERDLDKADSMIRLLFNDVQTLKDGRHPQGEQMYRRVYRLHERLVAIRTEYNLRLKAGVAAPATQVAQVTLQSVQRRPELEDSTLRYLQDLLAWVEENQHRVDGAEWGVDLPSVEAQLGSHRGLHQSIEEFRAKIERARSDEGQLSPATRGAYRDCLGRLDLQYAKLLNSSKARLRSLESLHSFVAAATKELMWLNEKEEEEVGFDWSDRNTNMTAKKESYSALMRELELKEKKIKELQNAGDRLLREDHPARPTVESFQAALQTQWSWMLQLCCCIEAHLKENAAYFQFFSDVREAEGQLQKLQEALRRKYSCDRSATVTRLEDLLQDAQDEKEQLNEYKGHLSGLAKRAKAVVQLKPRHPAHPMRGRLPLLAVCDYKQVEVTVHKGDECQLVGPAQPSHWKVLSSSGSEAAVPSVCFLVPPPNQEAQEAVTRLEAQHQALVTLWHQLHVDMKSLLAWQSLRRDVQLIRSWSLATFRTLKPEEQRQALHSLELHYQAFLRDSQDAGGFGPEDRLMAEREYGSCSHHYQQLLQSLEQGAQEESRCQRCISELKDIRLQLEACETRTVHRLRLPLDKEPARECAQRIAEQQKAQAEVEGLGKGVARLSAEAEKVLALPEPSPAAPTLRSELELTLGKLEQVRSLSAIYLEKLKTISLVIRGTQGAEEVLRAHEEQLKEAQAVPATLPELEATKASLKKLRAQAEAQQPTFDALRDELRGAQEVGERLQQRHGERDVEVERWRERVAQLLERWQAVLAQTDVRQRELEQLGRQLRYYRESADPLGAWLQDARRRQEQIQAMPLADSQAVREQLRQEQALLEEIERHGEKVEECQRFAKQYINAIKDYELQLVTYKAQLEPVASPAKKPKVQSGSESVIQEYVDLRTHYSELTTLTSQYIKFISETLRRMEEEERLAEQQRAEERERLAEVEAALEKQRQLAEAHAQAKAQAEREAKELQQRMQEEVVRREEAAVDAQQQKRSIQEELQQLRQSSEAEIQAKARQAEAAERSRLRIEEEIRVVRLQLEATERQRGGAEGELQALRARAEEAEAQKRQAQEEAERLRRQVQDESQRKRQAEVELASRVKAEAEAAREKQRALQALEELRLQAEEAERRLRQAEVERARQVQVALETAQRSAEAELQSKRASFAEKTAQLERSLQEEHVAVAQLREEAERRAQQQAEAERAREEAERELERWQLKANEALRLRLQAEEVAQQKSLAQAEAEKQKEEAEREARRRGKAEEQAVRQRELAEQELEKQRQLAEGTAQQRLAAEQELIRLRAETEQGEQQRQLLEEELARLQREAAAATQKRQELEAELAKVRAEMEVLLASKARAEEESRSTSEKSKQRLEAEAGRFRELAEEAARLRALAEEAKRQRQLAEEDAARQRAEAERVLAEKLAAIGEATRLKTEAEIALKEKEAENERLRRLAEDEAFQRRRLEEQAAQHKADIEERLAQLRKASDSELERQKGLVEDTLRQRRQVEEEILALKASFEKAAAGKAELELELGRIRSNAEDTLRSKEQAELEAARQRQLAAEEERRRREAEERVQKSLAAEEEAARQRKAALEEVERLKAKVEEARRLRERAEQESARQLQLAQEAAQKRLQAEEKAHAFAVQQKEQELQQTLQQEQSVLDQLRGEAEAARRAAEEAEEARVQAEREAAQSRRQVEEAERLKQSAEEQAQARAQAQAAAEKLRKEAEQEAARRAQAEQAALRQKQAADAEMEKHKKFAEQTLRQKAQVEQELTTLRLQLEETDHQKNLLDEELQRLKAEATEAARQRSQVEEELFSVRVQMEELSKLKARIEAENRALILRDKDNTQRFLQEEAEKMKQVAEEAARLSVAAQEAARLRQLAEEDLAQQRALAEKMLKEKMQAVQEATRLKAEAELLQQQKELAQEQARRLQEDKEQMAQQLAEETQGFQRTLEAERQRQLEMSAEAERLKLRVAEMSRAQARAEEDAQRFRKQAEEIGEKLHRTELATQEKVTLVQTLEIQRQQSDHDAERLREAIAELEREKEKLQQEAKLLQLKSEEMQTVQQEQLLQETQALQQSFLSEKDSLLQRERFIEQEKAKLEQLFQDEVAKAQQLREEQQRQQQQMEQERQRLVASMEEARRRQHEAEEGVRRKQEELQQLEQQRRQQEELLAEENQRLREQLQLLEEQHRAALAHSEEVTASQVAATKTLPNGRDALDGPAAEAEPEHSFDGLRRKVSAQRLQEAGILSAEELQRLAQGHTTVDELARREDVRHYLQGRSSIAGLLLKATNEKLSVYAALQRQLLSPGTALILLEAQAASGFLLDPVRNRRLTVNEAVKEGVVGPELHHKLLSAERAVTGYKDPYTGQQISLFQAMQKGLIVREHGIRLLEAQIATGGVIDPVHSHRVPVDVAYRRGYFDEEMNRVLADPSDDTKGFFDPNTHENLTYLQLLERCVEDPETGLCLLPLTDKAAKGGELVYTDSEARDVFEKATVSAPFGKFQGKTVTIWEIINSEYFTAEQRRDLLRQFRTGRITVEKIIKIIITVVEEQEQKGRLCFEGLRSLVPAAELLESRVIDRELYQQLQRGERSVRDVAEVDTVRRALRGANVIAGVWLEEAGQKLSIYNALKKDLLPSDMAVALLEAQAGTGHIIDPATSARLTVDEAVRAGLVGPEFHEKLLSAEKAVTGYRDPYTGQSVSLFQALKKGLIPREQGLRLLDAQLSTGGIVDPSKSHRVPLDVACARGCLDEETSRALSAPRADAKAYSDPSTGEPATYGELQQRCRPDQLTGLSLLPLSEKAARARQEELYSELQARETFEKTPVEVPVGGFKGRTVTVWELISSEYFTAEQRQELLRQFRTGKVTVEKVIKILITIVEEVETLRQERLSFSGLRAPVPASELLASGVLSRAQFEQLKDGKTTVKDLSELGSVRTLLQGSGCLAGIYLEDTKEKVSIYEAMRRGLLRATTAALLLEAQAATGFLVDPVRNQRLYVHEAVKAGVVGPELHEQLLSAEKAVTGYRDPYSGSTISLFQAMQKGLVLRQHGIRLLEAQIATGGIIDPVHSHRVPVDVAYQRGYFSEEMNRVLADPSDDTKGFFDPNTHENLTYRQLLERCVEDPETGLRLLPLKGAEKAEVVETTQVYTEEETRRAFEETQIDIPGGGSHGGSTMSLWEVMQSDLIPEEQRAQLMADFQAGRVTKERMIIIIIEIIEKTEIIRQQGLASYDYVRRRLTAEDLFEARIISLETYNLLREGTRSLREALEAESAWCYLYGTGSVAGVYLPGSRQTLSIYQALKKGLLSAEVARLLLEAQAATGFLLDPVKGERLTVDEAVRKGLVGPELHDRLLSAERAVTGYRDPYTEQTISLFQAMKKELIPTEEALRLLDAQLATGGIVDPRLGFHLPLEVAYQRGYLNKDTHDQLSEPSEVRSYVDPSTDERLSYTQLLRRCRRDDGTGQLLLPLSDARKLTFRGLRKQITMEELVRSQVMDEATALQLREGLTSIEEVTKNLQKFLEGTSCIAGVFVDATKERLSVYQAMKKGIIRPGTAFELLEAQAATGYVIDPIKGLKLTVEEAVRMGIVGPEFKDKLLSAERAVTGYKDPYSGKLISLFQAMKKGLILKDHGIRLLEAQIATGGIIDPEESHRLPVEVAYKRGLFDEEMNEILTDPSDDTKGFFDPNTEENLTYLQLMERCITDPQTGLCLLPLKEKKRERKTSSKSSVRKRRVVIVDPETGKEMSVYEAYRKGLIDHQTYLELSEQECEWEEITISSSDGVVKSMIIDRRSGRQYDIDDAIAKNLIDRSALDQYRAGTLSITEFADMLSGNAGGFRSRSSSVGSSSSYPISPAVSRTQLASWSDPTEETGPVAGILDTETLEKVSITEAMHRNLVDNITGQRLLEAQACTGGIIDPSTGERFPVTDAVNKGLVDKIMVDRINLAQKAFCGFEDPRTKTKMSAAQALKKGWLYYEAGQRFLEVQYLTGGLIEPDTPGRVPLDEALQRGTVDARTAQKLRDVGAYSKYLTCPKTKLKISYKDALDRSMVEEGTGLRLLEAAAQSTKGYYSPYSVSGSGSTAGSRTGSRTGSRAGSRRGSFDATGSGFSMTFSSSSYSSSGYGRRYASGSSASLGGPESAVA

B1: PAb1 (antibody, mouse IgG2b, kappa, V domains shown)
VH: QIQLVQSGPELKKPGETVKISCKASGYTFTDYSMHWVKQAPGKGLKWMGWINTETGEPTYADDFKGRFAFSLETSASTAYLQINNLKNEDTATYFCAPGGFAYWGQGTLVTVSA
VL: DIVMTQAAPSVPVTPGESVSISCRSSKSLLHSNGNTYLYWFLQRPGQSPQLLIYRMSNLASGVPDRFSGSGSGTAFTLRISRVEAEDVGVYYCMQHLEYPLTFGAGTKLELKR
notes: Mouse hybridoma monoclonal antibody; also called Plectin-1 mAb; Plectin-1mAb
[1]
  Plectin-1mAb EC50 (nM): concentration of mAb that reduced cell viability by 50%, L3.6pl cells, 72 hours: 34 nM
  Plectin-1mAb EC50 (nM): concentration of mAb that reduced cell viability by 50%, OVCAR8 cells, 72 hours: 63 nM
  Plectin-1mAb EC50 (nM): concentration of mAb that reduced cell viability by 50%, SKOV3 cells, 72 hours: 53 nM
  Plectin-1mAb EC50 (nM): concentration of mAb that reduced cell viability by 50%, YapC cells, 72 hours: 43 nM
[2]
  Kd: < 1 nM

— patent US20190119397A1 (ZIELBIO, published 2019)
